Data on 1 protein can be found in publication PMC5988928, “An alkaline and surfactant-tolerant lipase from Trichoderma lentiforme ACCC30425 with high application potential in the detergent industry” (AMB Express, 2018).

What all share (test): purified protein
Format in all cases: biochemical, Trichoderma sp.
Holding throughout (conditions): pH 9.5, 50 °C, 10 min, Tris-HCl

Substrate in series [1]: CCCC(=O)Oc1ccc([N+](=O)[O-])cc1
Substrate in series [2]: CCCCCCCC(=O)Oc1ccc([N+](=O)[O-])cc1
Substrate in series [3]: CCCCCCCCCC(=O)Oc1ccc([N+](=O)[O-])cc1
Substrate in series [4]: CCCCCCCCCCCC(=O)Oc1ccc([N+](=O)[O-])cc1
Substrate in series [5]: CCCCCCCCCCCCCC(=O)Oc1ccc([N+](=O)[O-])cc1
Substrate in series [6]: CCCCCCCCCCCCCCCC(=O)Oc1ccc([N+](=O)[O-])cc1

B1: TlLipA (Trichoderma sp.) (protein)
chain: AQGQVNVTIPSGNIMGSSVEDVEFFKGIPFADPPIGELRFKPPQTLSTHLGDFDATKKAKLCSQGPVFTVSSNPQVAPFALKAERESFGNPVPPENESEDCLTVTIHRPAGTEAGDDLPVLFYIFGGGFVIGGTSAAINDPTVLVQTGIDLGKPFIFAAVNYRVGGWGFMPGAEILRDGSANAGLLDQRKGLEWVADNIAAFGGDPSKVTIWGQSSGSISVFEQLVLYDGDNTYNGNPLFRGAIMNSGSVTPVDPVDSAKPQALYDHVVRVANCEGDDSLDCLRRLPNDHFAAAANSIPGLISYESLALSYLPRPDGEVLTASPHVLAREGKFPAVPMILASQEDEGTLFSFFQGDMGTTDIITDYLNSLYFTNTDRSLVKSFVETYSERLEDGSPYRTGDSKDLFYYPGKKRIASILGDIVFTLVRRWTLETIAEVSPETALWSSFASYNYKPLDIFGLGTKHGSDTEVFFARNNSDFPSITGRTYYINFVYNGDPNEGLDVNVTWLGWKEDRQLLWYNATENGYLADNFRNGSYNFIKEHIDSLIF
notes: secreted from Pichia pastoris GS115 (pPIC9, alpha-factor signal), no tag told; N-terminus AQGQVNVTIP from primer
Broadly, the Km is the concentration of substrate that gives half-maximal velocity. As a reminder, the Vmax is the top rate of the reaction or transport when substrate is in excess. For orientation: kcat means the number of substrate molecules converted per active site and unit of time at saturation. By kcat/Km is commonly meant the second-order rate constant that governs catalysis at low substrate concentration. For B1, the Km in “purified protein [1]” turned out to be 400 ± 70 µM; in “purified protein [2]” it was 670 ± 230 µM; in “purified protein [3]” it was 350 ± 70 µM; in the series “purified protein [4]”, 1590 ± 420 µM; in the series “purified protein [5]”, 3290 ± 1210 µM; in “purified protein [6]”, 4220 ± 1280 µM. The Vmax in “purified protein [1]” amounted to 12.2 µmol/min/mg; in “purified protein [2]”, 27.3 µmol/min/mg; in the series “purified protein [3]” it was 12.5 µmol/min/mg; in “purified protein [4]”, 16.8 µmol/min/mg; in “purified protein [5]” it was 4.3 µmol/min/mg; in “purified protein [6]”, 4.8 µmol/min/mg. Moreover, the kcat in the series “purified protein [1]” was found to be 12.2 ± 0.8 s⁻¹; in the series “purified protein [2]”, 27.4 ± 4.4 s⁻¹; in “purified protein [3]”, 12.5 ± 0.7 s⁻¹; in “purified protein [4]” it was 16.8 ± 2.4 s⁻¹; in “purified protein [5]”, 4.3 ± 1 s⁻¹; in “purified protein [6]”, 4.8 ± 1 s⁻¹. Besides, the kcat/Km in “purified protein [1]” amounted to 30700 M⁻¹ s⁻¹; in the series “purified protein [2]”, 41000 M⁻¹ s⁻¹; in the series “purified protein [3]” it was 35800 M⁻¹ s⁻¹; in “purified protein [4]”, 10600 M⁻¹ s⁻¹; in the series “purified protein [5]”, 1320 M⁻¹ s⁻¹; in the series “purified protein [6]”, 1140 M⁻¹ s⁻¹.
